Source: the nanobody polyreactivity screen of Harvey et al. (2022)

Assay: yeast display, Sf9 membrane polyspecificity reagent, FACS + sequencing; frameworks hold sequencing errors
Method in brief: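 Polyreactivity labels are assigned by the sorting gate from which each nanobody was recovered. The gates were low and high (top ~1%), set on anti-HA fluorescence for expression and streptavidin fluorescence for reagent binding. Before sorting, galactose-induced (36–48 hours) yeast display cells were stained for 1 hour at 4 °C with 10% biotinylated, detergent-solubilized Sf9 membrane reagent.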

Row | Sequence | polyreactivity (PSR sort gate)
1 | QVQLVESGGGLVQAGGSLRLSCAASGIIFCRYAMGWYTQAPGKERELVAAISSSGSTYYADSVKGRFTISRDNATNTVYLQMNSLKPEDTAVYYCAAYSYPAGEYDYWGQGTQVTVSS | low polyreactivity
2 | QVQLVESGGGLVQAGGSLRLSCAASGIIFDAYGMGWYRQAPGKEMELVAAINTVGSTNYADSVKGRFTISRDNAKNTVYLQMNSLKPEDTAVYYCAADSYFYDPYDYWGQGTQVTVSS | low polyreactivity
3 | QVQLVESGGGLVQAGGSLRLSCAASGIIFDDYAMGWYRQAPGKERELVAAITDSGGSTYYADSVKGRFTISRDNAKNTVYLQMNSLKPEDTAVYYCAARTQRRVNRVGYRSNYYYWGQGTQVTVSS | low polyreactivity
4 | QVQLVESGGGLVQAGGSLRLSCAASGIIFDGYAMGWYRQAPGKEREFVAGITWSGGSTYYADSVKGRFTISRDNAKNTVYLQMNSLKPEDTSVYYCAAKYYWYYSYSGIPLFDYWGQGTQVTVSS | low polyreactivity
5 | QVQLVESGGGLVQAGGSLRLSCAASGIIFDGYAMGWYRQAPGKEREFVAVISSSGGTTYYADSVKGRFTISRDNAKNTVYLQMNSLKPEDTAVYYCATLRYSPGWYTRDDYWGQGTQVTVSS | low polyreactivity
6 | QVQLVESGGGLVQAGGSLRLSCAASGIIFDSYALGWYRQAPGKERELVAAITSRGGRTYYAVSVKGRFTISRDNAKNTVYLQMNSLKPEDTAVYYCAARAKYDRRTDGTSGYDYWGQGTQVTVSS | low polyreactivity
7 | QVQLVESGGGLVQAGGSLRLSCAASGIIFDSYAMGWYRQAPGKERELVAAITSDSGRTYYADSVKGRFTISRDNAKKTVYLQMNSLKPEDTAVYYCAKRWDGPYDYWGQGTQVTVSS | low polyreactivity
8 | QVQLVESGGGLVQAGGSLRLSCAASGIIFDSYAMGWYRQAPGKERELVAAITSDSGRTYYADSVKGRFTISRDNAKNTVYLHMNSLKPEDTAVYYCNADAYTYPTARYYWGQGTQVTVSS | low polyreactivity
9 | QVQLVESGGGLVQAGGSLRLSCAASGIIFDSYAMGWYRQAPGKERELVAAITSRGGRTYYADSVKGRFTISRDNAKNTVSLQMNSLKPEDTAVYYCAARAKYDRRTDGTSGYDYWGQGTQVTVSS | low polyreactivity
10 | QVQLVESGGGLVQAGGSLRLSCAASGIIFDSYTMGWYRQAPGKERELVAGISGSGGSTDYADSVKGRFTISRDNAKNTFYLQMNSLKPEDTAVYYCAARPTPYRDDADEYWGQGTQVTVSS | low polyreactivity
11 | QVQLVESGGGLVQAGGSLRLSCAASGIIFDYNAMGWYRQAPGKERELVAAITWSGSSTFYADSVKGRFTISHDNAKNTVYLLMNSLKPEDTAVYYCNAEYYWGTYANFDYWGQGTQVTVSS | low polyreactivity
12 | QVQLVESGGGLVQAGGSLRLSCAASGIIFEGNVMGWYRQAPGKERELVAAITSDTSTNYADSVKGRFTISRDNAKNTVYLQMNSLKPEDTAVYYCNAVIGTDYYYSGTAEFYYWGQGTQVTVSS | low polyreactivity
13 | QVQLVESGGGLVQAGGSLRLSCAASGIIFEGYAMGWYRQAPGKERELVAAISQSGGSTRYADSVKGRFTISRDNAKNTVYLQMNSLKPEDTAVYYCAARYILWDGDSWTEFDYWGQGTQVTVSS | low polyreactivity
14 | QVQLVESGGGLVQAGGSLRLSCAASGIIFENYAMGWYRQAPGKERELVAAITIGGSTYYADSVKGRFTISRDNAKNTVYLQMNSLKPEDTAVYYCAARSGAQRGGGYWGQGTQVTVSS | high polyreactivity
15 | QVQLVESGGGLVQAGGSLRLSCAASGIIFEYYAMGWYRQAPGKERELVAAISKRGGSTYYADSVKGRFTISRDNAKNTVYLQMNSLKPEDTAVYYCNARRRYYSGPVYLHYRVNYWGQGTQVTVSS | high polyreactivity
16 | QVQLVESGGGLVQAGGSLRLSCAASGIIFEYYAMGWYRQAPGKERELVAAITRGGSTYYADSVKGRFTISRDNAKNTVYLQMNSLKAEDTAVYYCAADRYYYEYDYWGQGTQVTVSS | low polyreactivity
17 | QVQLVESGGGLVQAGGSLRLSCAASGIIFFANAMGWYRQAPGKERELVASISASGGNTYYADSVKGRFTISRDNAKNTVYLQMNSLKPEDTAVYYCAARARRSQSISLKYYYWGQGTQVTVSS | high polyreactivity
18 | QVQLVESGGGLVQAGGSLRLSCAASGIIFFDYAMGWYRQAPGKDRELVAAISSGGGNTYYADSVKGRFTISRDNAKNTVYLQMNSLKPEDSAVYYCAAEPYIYGEQGAYDYWGQGTQVTVSS | low polyreactivity
19 | QVQLVESGGGLVQAGGSLRLSCAASGIIFFKNAMGWYRQAPGKERELVAAISSTDTRTYYADSVKGRFTISRDNAKNTVYLQMNSLKPEDTAVYYCAASRRGGGLDYWGQGTQVTVSS | high polyreactivity
20 | QVQLVESGGGLVQAGGSLRLSCAASGIIFFNNVMGWYRQAPGKERVLVAGITYTGGSTYYADSVKGRFTISRDNAKNTVYLHMNSLKPEDTAVYNCNKDYANTRRVTEYDYWGQGTQVTVSS | low polyreactivity
21 | QVQLVESGGGLVQAGGSLRLSCAASGIIFFRNAMGWYRQAPGKERELVAAIRWSGGSSYYADSVKGRYTISRDNAKNTVYLQINSLKPEDTAVYYCNAVTVYKHGSWGQGTQVTVSS | high polyreactivity
22 | QVQLVESGGGLVQAGGSLRLSCAASGIIFFSNAMGWYRQAPGKERELVAAITGGSSTNYADSVKGRFTISRDNAKNTVYLQMNSLKPEENAVYYCNAPTKSTPRSEPIPYYEFDYWGQGTQVTVSS | low polyreactivity

Row | Sequence | polyreactivity (PSR sort gate)
23 | QVQLVESGGGLVQAGGSLRLSCAASGIIFFWNAMGWYRQAPGKERELVAAISEDGGGTYYADSVKGRFTISRDNAKNTVYLQMNSLKPEDTAVYYCNTDTSPQIVTRRSFDDYWGQGTQVTVSS | low polyreactivity
24 | QVQLVESGGGLVQAGGSLRLSCAASGIIFFWNAMGWYRQAPGKERELVAAISEDGGGTYYADSVKGRFTISRDNAKNTVYLQMNSMKPEDTAVYYCNTDTSPQIVTRGSFDDYWGQGTQATVSS | low polyreactivity
25 | QVQLVESGGGLVQAGGSLRLSCAASGIIFGDNAMGWYRQAPGKERELVAAIDSGGSTYYADSVKGRFTISRDNAKTTVYCPMNSLKPEDTAVYYCNAVTAFGYSYGGWDYDQYNYWGQGTQVTVSS | low polyreactivity
26 | QVQLVESGGGLVQAGGSLRLSCAASGIIFGDNAMGWYRQAPGKERELVAAISSSGTSTNYADSVKGRFTISRDNAKNTVYLQMNSLKPEDSAVYYCAKDVLPPYPQSPSGGDYWGQGTQVTVSS | low polyreactivity
27 | QVQLVESGGGLVQAGGSLRLSCAASGIIFGDNAMGWYRQAPVTERELVAAIDSGGSTYYADSVKGRFTISRDNAKNTVYLQMISLKPEDTAVYYCNAVTAFGYSYAGWDYDQYNYWGQGTEVTVSS | low polyreactivity
28 | QVQLVESGGGLVQAGGSLRLSCAASGIIFGGNAMGWYRQAPGKERELVATISNGGSTKYADSVKGRFTISRDNAKNTVYLQMNSLKPEYTAVYYCAAQPRVGSYVRSSRGRYNHWGQGTQVTVSS | high polyreactivity
29 | QVQLVESGGGLVQAGGSLRLSCAASGIIFGGYAMGWYRQAPGKERELVADISGISSNTYYADSVKGRFTISRDNAKNTVYLQMNSLKPEDTAVYYCAADLTAWWAPVIFYYWGQGTQVTVSS | high polyreactivity
30 | QVQLVESGGGLVQAGGSLRLSCAASGIIFGGYAMGWYRQAPGKERELVASITYDGGSTSYEDSVKGRFTISRDNAKNTVYLQMNSLKPEDTAVYYCNAELFSVNGYDYWGQGTQVTVSS | low polyreactivity
31 | QVQLVESGGGLVQAGGSLRLSCAASGIIFGGYDMGWYRQAPGKERELVAAISWSGGSTYYADSVKGRFTISRDNAKNTVYLQMNSLKPEDTAVYYCAAAYYAPSRDYYYWGQGTQVTVSS | low polyreactivity
32 | QVQLVESGGGLVQAGGSLRLSCAASGIIFGINAMGWYRQAPGKERELVATITSGGGTNYADSVKGRFTISRDNAKNTVYLQMNSLKPEDTAVYYCAKPTYRFYWGDFDYWGQGTQVTVSS | low polyreactivity
33 | QVQLVESGGGLVQAGGSLRLSCAASGIIFGKYAMGWYRQAPGKERELVAAINYSGSTYYADSVKGRFTISRDNAKNTVYLQMNSLKPEDTAVYYCAAVLGLDTRYDYWGQGTQVTVSS | high polyreactivity
34 | QVQLVESGGGLVQAGGSLRLSCAASGIIFGRNVMGWYRQAPGKERELVAAISWSGGSTYYADSVKGRFTISRDNAKNTVYLQMNSLKPEDTAVYYCAASYWWIPMEYWGQGTQVTVSS | high polyreactivity
35 | QVQLVESGGGLVQAGGSLRLSCAASGIIFGRYAMGWYRQSPGKERELVAAISSRGGSTYYADSVKGRFTISRDNAKNTVYLQMNSLKPEDTAVYYCAATWCFLRGSTKYYYWGQGTQVTVSS | high polyreactivity
36 | QVQLVESGGGLVQAGGSLRLSCAASGIIFGRYPMGWYRQAPGKERELVAAITSSGITYYADSVKGRFTISRDNAKNTVYLQMNSLKPEDTAVYYCNADYSIPGYYWPYDYWGQGTQVTVSS | low polyreactivity
37 | QVQLVESGGGLVQAGGSLRLSCAASGIIFGSYAMGWYRQAPGKERELVAAISRGTSTYYAVSVKGRFTISRDNAKNTVYLQMNSLKPEDSAVYYCAATRQQYGPHSRFVYVNYYYCGQGTQVTVSS | low polyreactivity
38 | QVQLVESGGGLVQAGGSLRLSCAASGIIFGTNAMGWYRQAPGKERELVAYITSGGSTYADSVKGRFTISRDNAKNTFYLQMHSLKPEDTEVYYCAAYVFWAFYEYDYWGQGTQVTVSS | low polyreactivity
39 | QVQLVESGGGLVQAGGSLRLSCAASGIIFGTYAMGWYRQAPGKERELVAAITRSGGSTYYADSVMGRFTISRDNAKNTVYLQMNSLKPEDTAVYYCAASSTWYGYYIYVFRAYDYWGQGTQGTVSS | low polyreactivity
40 | QVQLVESGGGLVQAGGSLRLSCAASGIIFGTYAMGWYRQAPGKERELVASISSRGGSTYYADTVKGRFTISRDNAKNTVYLQMNSLKPEDTAVYYCAARNAYPGNSMDSWGLGTQVTVSS | high polyreactivity
41 | QVQLVESGGGLVQAGGSLRLSCAASGIIFGVNVMGWYRQAPGKERELVATITWRGDSTYYADSVKGRFTISRDNAKNTVYLQMNSLKPEDTAVYYCAVLRSWWYRYDYWGQGTQVTVSS | low polyreactivity
42 | QVQLVESGGGLVQAGGSLRLSCAASGIIFGWYAMGWYRQAPGKERELVAAISYSGGSTYYADSVKGRFTISRDNAKNTVYLQMNSLKPEDTAVYYCAVQRYWGQGTQVTVSS | high polyreactivity
43 | QVQLVESGGGLVQAGGSLRLSCAASGIIFGWYAMGWYRQAPGKERELVAAITWSGASTYYADSVKGRFTISRDNAKNTVYLQMNSLKPEDTAVYYCAAESVDNIYYGFDYWGQGTQVTVSS | high polyreactivity
